In experiment [1] the target is arrestin3. Nature of the experiment: single-cell FRET, PTH1R–eYFP / arrestin3–CFP.
In experiment [2] the target is arrestin3. Nature of the experiment: dual-color FRAP of arrestin3–CFP. The conditions noted are these: reference: wild type.
The target in experiment [3] is arrestin3. Put plainly: BRET, arrestin3–Rluc / PTH1R–eYFP. The settings on record: reference: wild type.
The target in experiment [4] is PTH1R PD3 mutant (mutations of clusters 1 and 2 combined), HA- and eYFP-tagged (human) (UniProt Q03431).
In experiment [5] the target is parathyroid hormone receptor 1 (PTH1R) wild type, N-terminally HA-tagged, C-terminally eYFP-labelled (human) (UniProt Q03431).
The mark [6] stands for this setting: sites S489,S491,S492,S493,S495,S501,T503,S504,T506.

Consider “PTH1R (parathyroid hormone receptor 1) (from UniProt Q03431) 100 nM PTH(1–34)”, for which the other: increase in FRET in the experiment with arrestin3 [1] (reference: before agonist) worked out at 24.8%.
For the substance “PTH1R (parathyroid hormone receptor 1) (from UniProt Q03431) PD1 (cluster 1 S/T to Ala)”, the “other: arrestin3 recovery after photobleaching” value (“other: arrestin3 recovery” for short) in the experiment with arrestin3 [2] (sites S489,S491,S492,S493,S495) is given as “same; reference 19.07 ± 0.68–23.94 ± 0.86”. Moreover, in the experiment with arrestin3 [3] (sites S489,S491,S492,S493,S495), the percent of reference (% of WT maximum BRET) was 80.8. Moreover, the other: reduction of FRET signal vs WT in the experiment with arrestin3 [1] (reference: wild type, sites S489,S491,S492,S493,S495) is 42.1%.
As to “PTH1R (parathyroid hormone receptor 1) (from UniProt Q03431) PD2 (cluster 2 S/T to Ala)”, the “other: arrestin3 recovery” value with arrestin3 [2] (sites S501,T503,S504,T506) is “weaker; reference 19.07 ± 0.68–23.94 ± 0.86”. In the experiment with arrestin3 [3] (sites S501,T503,S504,T506), the percent of reference (% of WT maximum BRET) is 66.9.
As to “PTH1R (parathyroid hormone receptor 1) (from UniProt Q03431) PD3 (clusters 1 and 2 S/T to Ala)”, the “other: arrestin3 recovery” value with arrestin3 [2] (setting [6]) is “weaker; reference 19.07 ± 0.68–23.94 ± 0.86”. Besides, the percent of reference (% of WT maximum BRET) with arrestin3 [3] (setting [6]) was determined as 46.6.
Consider “PTH1R (parathyroid hormone receptor 1) (from UniProt Q03431) T503A, S504A”, for which the “other: arrestin3 recovery” value with arrestin3 [2] (sites T503,S504) is given as “weaker; reference 19.07 ± 0.68–23.94 ± 0.86”. Besides, in the experiment with arrestin3 [1] (reference: wild type, sites T503,S504), the “other: agonist-induced FRET change” value was “weaker; reference 24.8 ± 12.7”.
Consider PTH(1–34) (peptide), for which the pEC50 of PTH(1–34) for cAMP accumulation (HTRF) in HEK293 cells transfected with HA–PTH1R PD3 (without YFP), 15 min, 100 µM IBMX in experiment [4] is 11.3. Moreover, the pEC50 of PTH(1–34) for cAMP accumulation (HTRF) in HEK293 cells transfected with HA–PTH1R WT (without YFP), 15 min, 100 µM IBMX in experiment [5] was 10.9.

Values taken from PMC5103873.
